Measured values reported in the supplement of paper PMC9170038.

Test system: MS2 coat protein
Experiment: apparent KD of MS2 coat protein; designed switch direction (-1 OFF switch, 1 ON switch): -1; higher = weaker reporter binding
Outline: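 Each step of the titration lasted 0.8–1.5 h at the lowest concentration and 10–20 min at the highest. The protein, SNAP-549-labelled MS2 coat protein, went from 0.7 or 1.5 nM doubling to 3 µM over RNA switches transcribed on Illumina chips by stalled E. coli RNA polymerase. Normalised cluster fluorescence was curve-fitted, and the per-design median over clusters is given as apparent KD.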

[1] = input ligand: microRNA oligo, concentration not stated
[2] = Eterna round: R95, input ligand: microRNA oligo, concentration not stated
[3] = Eterna round: R95, input ligand: FMN 200 uM
[4] = Eterna round: R95, input ligand: none

Sequence	apparent KD of MS2 coat protein (input ligand: FMN 200 uM)	apparent KD of MS2 coat protein (input ligand: none)	other results
UAUAUAUAGUAAGGAUAUGUAAAUAUUUUAUAAACAGAAGGUACUGACAUGAGGAUCACCCAUGUUUUAGUGUGGGCAUGUAGA [JMF's solution 28] (Eterna round: R96, puzzle: Exclusion NG 1)	–	–	apparent KD of MS2 coat protein [1]: 66.2 nM
UAUAUAUAGUAAGGAUAUGUAAUUAGUUUAUAAACAGAAGGUACUGACAUGAGGAUCACCCAUGUUUUAGUGUGGGCAUGUAGA [JMF's solution 36] (Eterna round: R96, puzzle: Exclusion NG 1)	–	–	apparent KD of MS2 coat protein [1]: 61.3 nM
UAUAUAUAGUAAGGAUAUGUAUAUAUUUCAUAAACAGAAGGUACUGACAUGAGGAUCACCCAUGUUUUAGUGUGGGCAUGUAGA [JMF's solution 65] (Eterna round: R96, puzzle: Exclusion NG 1)	–	–	apparent KD of MS2 coat protein [1]: 48 nM
UAUAUAUAGUAAGGAUAUGUAUUAAUUUUAUGAACAGAAGGUACUGACAUGAGGAUCACCCAUGUUUUAGUGUGGGCAUGUAGA [JMF's solution 91] (Eterna round: R96, puzzle: Exclusion NG 1)	–	–	apparent KD of MS2 coat protein [1]: 65.5 nM
UAUAUAUAGUAAGGAUAUGUAUUAUUUUUAUAAACAGAAGGUACUGACAUGAGGAUCACCCAUGUUUUAGUGUGGGCAUGUAGA [JMF's solution 73] (Eterna round: R96, puzzle: Exclusion NG 1)	–	–	apparent KD of MS2 coat protein [1]: 36.9 nM
UAUAUAUAGUAAGGAUAUGUAUUUAAUUUAUAAACAGAAGGUACUGACAUGAGGAUCACCCAUGUUUUAGUGUGGGCAUGUAGA [JMF's solution 13] (Eterna round: R96, puzzle: Exclusion NG 1)	–	–	apparent KD of MS2 coat protein [1]: 80.8 nM
UAUCGCAAGCGAAGAUCCCACAUGAGGAUCACCCAUGUGCUCGUCUUAUAAGGUACUGUGACGAAAGUCACGGUACC [Sensor 3, v1 - 91 v15] (Eterna round: R97, puzzle: Sensor, turn-off variant 1)	31.6 nM	32.2 nM	–
UAUGCCUUUGUGAGGAUAUACUUUGUUUGGUCGUAGUAGAAGGCACAUGAGGAUCACCCAUGUAGAUUUUUGGU [JR_BME4_Sub012] (puzzle: Brourd's mod of Exclusion 4)	–	–	apparent KD of MS2 coat protein [2]: 25.4 nM
UAUGGUUAAGUCAGGAUAUGCACGAAGAGAUCAAUGCAGAAGGGACAUGAGGAUCACCCAUGUAAAGUCGUGUU [Ex4 #74] (Eterna round: R97, puzzle: Brourd's mod of Exclusion 4)	55.1 nM	27.7 nM	–
UAUGGUUAAGUCAGGAUAUGCUCAUAGAAGUCUAUGCAGAAGGGACAUGAGGAUCACCCAUGUAUGGUCGUGUU [Ex4 #65] (Eterna round: R97, puzzle: Brourd's mod of Exclusion 4)	142 nM	70.9 nM	–
UAUGGUUAAGUCAGGAUAUGCUCAUAGAAGUCUGUGCAGAAGGGACAUGAGGAUCACCCAUGUAUGGUAGUGUU [Ex4 #61] (Eterna round: R97, puzzle: Brourd's mod of Exclusion 4)	293 nM	460 nM	–
UAUGUCUCAGGAGGAUAUCUCCCGGUUGCCGUUAGAGAAGGCUUGAAACAUGAGGAUCACCCAUGUAAAUGGCCCGUCCUCCAA [Atsodibian] (Eterna round: R96, puzzle: Exclusion NG 1)	15.4 nM	14.7 nM	apparent KD of MS2 coat protein [1]: 9.77 nM
UAUGUUUUAGGAUAUUGUACUGCUGACAUGAGGAUCACCCAUGUAUGCUAACUCGGCCGUCGAGAAGGAGAAUAUG [BotMod 30 - Jieux - Exclusion 5] (Eterna round: R97, puzzle: Exclusion 5)	43.6 nM	63.8 nM	–
UAUUAAACAAGCAGAUCCCACAUGAGGAUCACCCAUGUGCUCGUCUUAUAAGGUACUGUGACGAAAGUCACGGUACC [Sensor 3, v1 - 91 v11] (Eterna round: R97, puzzle: Sensor, turn-off variant 1)	56.7 nM	62.1 nM	–
UAUUAACAAGCAAGAUCCCACAUGAGGAUCACCCAUGUGCUCGUCUUGUAAGGUACUGUGACGAAAGUCACGGUACC [Sensor 3, v1 - 84] (puzzle: Sensor v3, turn-off variant 1)	–	–	apparent KD of MS2 coat protein [3]: 13.9 nM; apparent KD of MS2 coat protein [2]: 41 nM; apparent KD of MS2 coat protein [4]: 13.4 nM
UAUUAACAAGCGAGAUCCCACAUGAGGAUCACCCAUGUGCUCGUCUUAUAAGGUACUGUGACGAUAGUCACGGUACC [Mat - Sensor, turn-off var - Eli Mod - D3] (Eterna round: R97, puzzle: Sensor, turn-off variant 1)	14.5 nM	13.8 nM	–
UAUUAAGCAAGCAGAUCCCACAUGAGGAUCACCCAUGUGCUCGUCUUAUAAGGUACUGUGACGAGAGUCACGGUACC [Mat - Sensor, turn-off var - Eli Mod - D69] (Eterna round: R97, puzzle: Sensor, turn-off variant 1)	165 nM	129 nM	–

Sequence	apparent KD of MS2 coat protein (input ligand: FMN 200 uM)	apparent KD of MS2 coat protein (input ligand: none)	other results
UAUUAGCAAGCAACUGGGUACAUGAGGAUCACCCAUGUGCUCGUCUUAUAAGGUACUGUGACGAAAUUCACGGUACC [mod--Eli13] (Eterna round: R97, puzzle: Sensor, turn-off variant 1)	21.1 nM	18.6 nM	–
UAUUAGCAAGCAAGAUCCCACAUGAGGAUCACCCAUGUGCUCGUCUUAUAAGGUACUGUGACGAUAGUCACGGUACC [Mat - Sensor, turn-off var - Eli Mod - D46] (Eterna round: R97, puzzle: Sensor, turn-off variant 1)	60.5 nM	54.1 nM	–
UAUUAGCAAGCGAGAUCCCACAUGAGGAUCACCCAUGUGCUCGUCUUAAGCCCAGAAUUACUGGGCGCUCGUCUUAU [Winner reversed engineered 20] (Eterna round: R97, puzzle: Sensor, turn-off variant 1)	13.1 nM	12.7 nM	–
UAUUAGCAAGCGAGAUCCCACAUGAGGAUCACCCAUGUGCUCGUCUUAUAAGGUACUGUGACGAAAGUCACGGUACC [Sensor 3, v1 - 91] (Eterna round: R96, puzzle: Sensor v3, turn-off variant 1)	11.5 nM	15.5 nM	apparent KD of MS2 coat protein [1]: 298 nM
UAUUAGCAAGCGAGAUCCCACAUGAGGAUCACCCAUGUGCUCGUCUUAUAAGGUACUGUGACGAAAGUCACGGUACC [Sensor 3, v1 - 91] (puzzle: Sensor v3, turn-off variant 1)	–	–	apparent KD of MS2 coat protein [3]: 12.6 nM; apparent KD of MS2 coat protein [2]: 441 nM; apparent KD of MS2 coat protein [4]: 10.8 nM
UAUUAGCAAGCGAGAUCCCACAUGAGGAUCACCCAUGUGCUCGUCUUAUAAGGUACUGUGACGAAAGUCACGGUACC [Sensor 3, v1 - 95 v5] (Eterna round: R97, puzzle: Sensor, turn-off variant 1)	16.8 nM	15.3 nM	–
UAUUAGCAAGCUAGAUCCCACAUGAGGAUCACCCAUGUGCUCGUCUUAUAAGGUACUGUGACGAAAGUCACGGUACC [Sensor 3, v1 - 96] (puzzle: Sensor v3, turn-off variant 1)	–	–	apparent KD of MS2 coat protein [3]: 56.8 nM; apparent KD of MS2 coat protein [2]: 798 nM; apparent KD of MS2 coat protein [4]: 57.5 nM
UAUUAGCAAGUAAGAUCCCACAUGAGGAUCACCCAUGUGCUCGUCAUAUCACGUACUGUGAGGAAACUCACGGUACG [Sensor-V1 #85] (Eterna round: R97, puzzle: Sensor, turn-off variant 1)	114 nM	128 nM	–
UAUUCGCAAGCGAGAUCCCACAUGAGGAUCACCCAUGUGCUCGUCUUAUAAGGUACUGUGACGAUAGUCACGGUACC [Mat - Sensor, turn-off var - Eli Mod - D81] (Eterna round: R97, puzzle: Sensor, turn-off variant 1)	16.7 nM	16.3 nM	–
UAUUCGCAAGUGAGAUCCCACAUGAGGAUCACCCAUGUGCUCGUCUUAUAAGGUACUGUGACGAUAGUCACGGUACC [Mat - Sensor, turn-off var - Eli Mod - D80] (Eterna round: R97, puzzle: Sensor, turn-off variant 1)	30.9 nM	32.5 nM	–
UAUUGGAUAGGAUAUACAUGAGGAUCACCCAUGUGGACGGCUAAGCCUACCGCGCAGAGUAGAAGGGUCGGGUG [Eternabot (L1) Solution 66] (Eterna round: R97, puzzle: Exclusion 3)	161 nM	155 nM	–
UAUUUACAUGAGGAUCACCCAUGUCAGGAUAUGUUUCUAUCGUCGAAAGACGAUAUUUGCAGAAGGGACAAUAU [LRO-Excl01-26 mod derived from EliFisker 4.24] (Eterna round: R97, puzzle: Exclusion 1)	64.4 nM	27.9 nM	–
UAUUUUAAAGUAAGGAUAUCGGUCCGAAAGGACUACGAGAAGGUACAUGAGGAUCACCCAUGUGAAAUAAGAAU [Mod of Zala 23 - Jieux - Brourd's Mod of Exclusion 4] (Eterna round: R97, puzzle: Brourd's mod of Exclusion 4)	20.8 nM	15 nM	–
UCAAAAUAGUCAGGAUAUGCAGAUUCAGCGUCCGCAGAAGGGACAGUGGGCUGGUCCGACACAUGAGGAUCACCCAUGUAAAAG [Teerreanor] (Eterna round: R96, puzzle: Exclusion NG 1)	260 nM	109 nM	apparent KD of MS2 coat protein [1]: 140 nM
UCAAGCUUUAAGCGUGUGAACAUGAGGAUCACCCAUGUAUUUUAGGUAAUAAGUUCUUUUAUGUAUUCUCGUCUUAU [JR_SWV3TOV1_Sub094] (puzzle: Sensor v3, turn-off variant 1)	–	–	apparent KD of MS2 coat protein [3]: 114 nM; apparent KD of MS2 coat protein [2]: 39.1 nM; apparent KD of MS2 coat protein [4]: 136 nM
UCAAGUAUGUAGGAUAUGAUGUGAUUUUACAUAUCAGAAGGACGUACAUGAGGAUCACCCAUGUAACUUGCAUG [Exclusion 6 - B - 12:a] (puzzle: Exclusion 6)	–	–	apparent KD of MS2 coat protein [2]: 86.9 nM
